B1: KL2B53 (antibody, V domains shown)
VH: EVQLVESGGGVVQPGRSLRLSCVASGFTFSSYDIHWVRQAPGKGLEWVAIISYDGSKKDYTDSVKGRFTISRDNSKNTLYLQMDSLRVEDSAVYSCARESGWSHYYYYGMDVWGQGTMVTVSS
VL: DIVMTQSPSSLSASVGDRVTITCRASQDISNYLAWYQQKPGKVPKFLIYAASTLHSGVPSRFSGSGSGTDFTLTISSLQPEDVATYYCQKYNSAPYTFGQGTRLEIKR
notes: also called KL2B53 (Fab); KL2B53 Fab
B2: KL2B242 (antibody, human IgG4 S228P, lambda, F234A L235A, V domains shown)
VH: QVQLQESGPGLVKPSETLSLTCTVSGGSISSYYWSWLRQPAGSGLEWIGRLYVSGFTNYNPSLKSRVTLSLDPSRNQLSLKLSSVTAADTAVYYCAGDSGNYWGWFDPWGQGTLVTVSS
VL: SYELTQPPSVSVSPGETASITCSGDQLGENYACWYQQKPGQSPVLVIYQDSKRPSGIPERFSGSNSGNTATLTISGTQALDEADYYCQAWDNSIVVFGGGTKLTVLG
notes: also called KL2B242 (Fab); KL2B242 Fab
B3: KL2B494 (antibody, V domains shown)
VH: QVQLVESGGGLVQPGGSLRLSCAASGFTFSHYAMSWVRQAPGKGLEWVSTIGGSGGSTYYADSVKGRFTISRDNSKNTLYLQMNSLRAEDTAVYYCAKPHIVMVTALLYDGMDVWGQGTMVTVSS
VL: SSELTQPPSVSVAPGQTARITCGGNNIGSKSVHWYQQKPGQAPVLVVYDDSDRPSGIPERFSGSNSGNTATLTISRVEAGDEADYYCQVWDSSSDHVVFGGGTKLTVLG
notes: also called KL2B494 (Fab); KL2B494 Fab
B4: CAR19 (KL2B359_HL) (other)
chain: QVQLQESGPGLVKPSQTLSLTCTVSGNSITSDYAWNWIRQFPGKRLEWIGYISYSGSTTYNPSLKSRVTISRDTSKNQFSLKLSSVTAADTAVYYCATGYYYGSGFWGQGTLVTVSSGGSEGKSSGSGSESKSTGGSEIVLTQSPATLSLSPGERATLSCRASESVEYFGTSLMHWYQQKPGQPPRLLIYAASNVESGIPARFSGSGSGTDFTLTISSVEPEDFAVYFCQQTRKVPYTFGGGTKVEIKTSTPAPRPPTPAPTIASQPLSLRPEACRPAAGGAVHTRGLDFACDIYIWAPLAGTCGVLLLSLVITLYCKRGRKKLLYIFKQPFMRPVQTTQEEDGCSCRFPEEEEGGCELRVKFSRSADAPAYKQGQNQLYNELNLGRREEYDVLDKRRGRDPEMGGKPRRKNPQEGLYNELQKDKMAEAYSEIGMKGERRRGKGHDGLYQGLSTATKDTYDALHMQALPPR
notes: also called KL2B359 HL CAR; rehumanized 11B6 HL CAR
B5: KL2B30 (antibody, V domains shown)
VH: QVQLQESGPGLVKPSETLSLTCTVSGGSISSYYWSWIRQPPGKGLEWIGYIYYSGSTNYNPSLKSRVTISVDTSKNQFSLKLSSVTAADTAVYYCAGTTIFGVVTPNFYYGMDVWGQGTTVTVSS
VL: DIQMTQSPSFLSASVGDRVTITCRASQGISSYLAWYQQKPGKAPKFLIYAASTLQSGVPSRFSGSGSGTEFTLTISSLQPEDFATYYCQQLNSYPLTFGGGTKVEIKR
notes: also called KL2B30 (Fab); KL2B30 Fab
B6: CAR20 (KL2B359_LH) (other)
chain: EIVLTQSPATLSLSPGERATLSCRASESVEYFGTSLMHWYQQKPGQPPRLLIYAASNVESGIPARFSGSGSGTDFTLTISSVEPEDFAVYFCQQTRKVPYTFGGGTKVEIKGGSEGKSSGSGSESKSTGGSQVQLQESGPGLVKPSQTLSLTCTVSGNSITSDYAWNWIRQFPGKRLEWIGYISYSGSTTYNPSLKSRVTISRDTSKNQFSLKLSSVTAADTAVYYCATGYYYGSGFWGQGTLVTVSSTSTPAPRPPTPAPTIASQPLSLRPEACRPAAGGAVHTRGLDFACDIYIWAPLAGTCGVLLLSLVITLYCKRGRKKLLYIFKQPFMRPVQTTQEEDGCSCRFPEEEEGGCELRVKFSRSADAPAYKQGQNQLYNELNLGRREEYDVLDKRRGRDPEMGGKPRRKNPQEGLYNELQKDKMAEAYSEIGMKGERRRGKGHDGLYQGLSTATKDTYDALHMQALPPR
notes: also called KL2B359 LH CAR; rehumanized 11B6 LH CAR
B7: KL2B413 (scFv) (scFv, V domains shown)
VH: EVQLVESGGGLVQPGGSLRLSCAASGFTFSSYWMTWVRQAPGKGLEWVANIKQDGSERYYVDSVKGRFTISRDNAKNSLYLQMNSLRAEDTAVYYCARDQNYDILTGHYGMDVWGQGTTVTVSS
VL: EIVLTQSPSFLSASVGDRVTITCRASQGISSYLSWYQQKPGKAPKLLIYATSTLQSGVPSRFSGSGSGTEFTLTISSLQPEDFATYYCQQLNSYPRTFGQGTKVEIK
B8: CAR17 (KL2B413_HL) (other)
chain: EVQLVESGGGLVQPGGSLRLSCAASGFTFSSYWMTWVRQAPGKGLEWVANIKQDGSERYYVDSVKGRFTISRDNAKNSLYLQMNSLRAEDTAVYYCARDQNYDILTGHYGMDVWGQGTTVTVSSGGSEGKSSGSGSESKSTGGSEIVLTQSPSFLSASVGDRVTITCRASQGISSYLSWYQQKPGKAPKLLIYATSTLQSGVPSRFSGSGSGTEFTLTISSLQPEDFATYYCQQLNSYPRTFGQGTKVEIKTSTPAPRPPTPAPTIASQPLSLRPEACRPAAGGAVHTRGLDFACDIYIWAPLAGTCGVLLLSLVITLYCKRGRKKLLYIFKQPFMRPVQTTQEEDGCSCRFPEEEEGGCELRVKFSRSADAPAYKQGQNQLYNELNLGRREEYDVLDKRRGRDPEMGGKPRRKNPQEGLYNELQKDKMAEAYSEIGMKGERRRGKGHDGLYQGLSTATKDTYDALHMQALPPR
notes: also called KL2B413 HL CAR; pBD000091628
B9: KL2B467 (antibody, V domains shown)
VH: QVQLVESGGGVVQPGRSLRLSCAASGFTFSYYGMHWVRQAPGKGLEWVAFISYDGSNKYYADSVKGRFTISRDNSKNTLYLQMNSLRAEDTAVYYCAHLPYSGSYWAFDYWGQGTQVTVSS
VL: QSVLTQPPSVSVAPGQTASITCGGDNIGSKSVHWYQQKPGQAPVLVVYDNSDRPSGIPERFSGSNSGTTATLTISRVEAGDEADYYCQVWDSSSDHPVVFGGGTKVTVLG
notes: also called KL2B467 (Fab); KL2B467 Fab
B10: KL2B359 (scFv) (scFv, V domains shown)
VH: QVQLQESGPGLVKPSQTLSLTCTVSGNSITSDYAWNWIRQFPGKRLEWIGYISYSGSTTYNPSLKSRVTISRDTSKNQFSLKLSSVTAADTAVYYCATGYYYGSGFWGQGTLVTVSS
VL: EIVLTQSPATLSLSPGERATLSCRASESVEYFGTSLMHWYQQKPGQPPRLLIYAASNVESGIPARFSGSGSGTDFTLTISSVEPEDFAVYFCQQTRKVPYTFGGGTKVEIK
notes: also called Clone KL2B359; rehumanized 11B6

Legend:
[1] = target: T1, soluble human Kallikrein-2 (hK2) (human, UniProt P20151 25-261); test: SPR; antibody captured on anti-Fc sensor chip, soluble hK2 injected; 1:1 Langmuir fit, KD = koff/kon
T1 construct: The construct used in SPR, ELISA and MSD screening is not defined; the stated signal peptide (1-18) is left out, and the pro-peptide (19-24) may or may not have been present; also called KLK2; soluble hK2

[2] = target: hK2 on target cells (VCaP, LNCaP/hK2, LNCaP, C4-2B) (human, UniProt P20151 19-261); test: cell-based or functional assay
[3] = target: T2, biotinylated recombinant hK2 protein (human, UniProt P20151 25-261, biotin label (EZ-Link Sulfo-NHS-LC-Biotin)); test: flow cytometry; CAR-transduced JNL cells stained with biotinylated hK2 and streptavidin-PE
T2 construct: In-house biotin-labelled recombinant hK2 used as the flow cytometry reagent; also called biotinylated hK2; Biotin-Hk2 protein

[4] = target: T2, biotinylated recombinant hK2 protein; test: flow cytometry; primary human T cells lentivirally transduced with the CAR (MOI 3), day 14, stained with biotinylated hK2 (1 ug/ml) then streptavidin-PE; UTD control gate 0.065

Chain of hK2 on target cells (VCaP, LNCaP/hK2, LNCaP, C4-2B) (P20151 19-261): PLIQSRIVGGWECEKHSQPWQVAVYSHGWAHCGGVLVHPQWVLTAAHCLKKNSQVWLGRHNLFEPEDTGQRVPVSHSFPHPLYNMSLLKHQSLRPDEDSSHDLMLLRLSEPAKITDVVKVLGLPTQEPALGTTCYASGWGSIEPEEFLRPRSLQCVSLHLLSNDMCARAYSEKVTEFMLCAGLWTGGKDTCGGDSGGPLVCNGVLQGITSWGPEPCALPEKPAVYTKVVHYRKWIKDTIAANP
T2 sequence (P20151 25-261): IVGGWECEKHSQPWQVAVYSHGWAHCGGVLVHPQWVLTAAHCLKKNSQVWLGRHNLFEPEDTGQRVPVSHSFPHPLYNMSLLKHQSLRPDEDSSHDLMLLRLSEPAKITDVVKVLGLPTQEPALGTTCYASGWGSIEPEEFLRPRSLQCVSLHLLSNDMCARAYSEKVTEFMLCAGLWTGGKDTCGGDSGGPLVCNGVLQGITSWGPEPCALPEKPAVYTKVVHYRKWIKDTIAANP
T1 sequence (P20151 25-261): as above

Row | Binder | Kd [1] | tumor cell growth inhibition (TGI, %) of hK2 positive VCaP cells, real-time IncuCyte killing assay, 96 hours [2] | % of JNL cells stained with biotinylated hK2 (reported as CAR expression) [3] | percent of CD3+ T cells in the PE-positive gate (hK2 CAR) [4]
1 | B1 | 0.08 nM |  |  | 
2 | B2 | 0.04 nM |  |  | 
3 | B3 | 0.053 nM |  |  | 
4 | B4 |  | ~100% | 46% | 45.1%
5 | B5 | 0.46 nM |  |  | 
6 | B6 |  | ~100% | 50.8% | 59.9%
7 | B7 | 34.3 nM |  |  | 
8 | B8 |  | ~100% | 73.7% | 56%
9 | B9 | 0.078 nM |  |  | 
10 | B10 | 0.7 to 1 nM |  |  | 

— patent US20220064254A1 (Janssen / Centocor, published 2022)
